Results as given in PMC4963209 (2016).

Target: T1, Juno (UniProt Q9EQF4 20-222)
T1 chain: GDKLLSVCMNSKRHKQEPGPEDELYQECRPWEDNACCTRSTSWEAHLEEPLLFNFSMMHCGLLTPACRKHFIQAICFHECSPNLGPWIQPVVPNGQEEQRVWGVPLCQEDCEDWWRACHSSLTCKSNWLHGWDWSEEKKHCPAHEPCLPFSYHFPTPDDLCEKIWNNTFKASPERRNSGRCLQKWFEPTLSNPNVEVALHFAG
Experiment: MST

Kd: 620 nM
B1: Izumo1 ectodomain (domain or fragment)
chain: CIKCDQFVTDALKTFENTYLNDHLPHDIHKNVMRMVNHEVSSFGVVTSAEDSYLGAVDENTLEQATWSFLKDLKRITDSDLKGELFIKELLWMLRHQKDIFNNLARQFQKEVLCPNKCGVMSQTLIWCLKCEKQLHICRKSLDCGERHIEVHRSEDLVLDCLLSWHRASKGLTDYSFYRVWENSSETLIAKGKEPYLTKSMVGPEDAGNYRCVLDTINQGHATVIRYDVTVLPPKHSEENQPPNIITQEEHETPVHVTPQTPPGQEPESELYPELHPELYPELIPTVAQNPEKKMKTR
modifications: N-acetylglucosamine attached to N204 (seen in the crystal structure)
